The results in this text go back to the DeepSol protein solubility set.

The nature of this data set: soluble on expression in E. coli; label from the status in PepcDB or PDB records.
As for “MFRGATAVNLDSKGRVAIPTRYRAEILEKNQGQMVCTVDIRQSCLLLYPLDEWEKIEQKLLALSNFDPTQRRLQRVMLGHATECEMDAQGRILLSGPLRQHAKLEKGLMLVGQLNKFEIWSDVEWHTQIAEDIEIGSSTDFAADALNDFSL”, the “soluble on expression in E. coli” value was “not soluble”.

Consider “MTRPVIVPFFISHQGCPHRCVFCDQERIAGRAGRLPSAAEIHSAVKTFGRGRPVEAAFYGGTFTSLPRNEQERLLAALQPLRHDGSVRSVRLSTRPDALDAETAGFLKSMGVASVELGVQSMDDQVLDVSGRGHSAADTVRAFDVLRSEGIAVGAQLMPGLPGDSRERSLDSLTRILDLKPVSLRIYPTLVVAGTRLAEFWAEGSYTPLTLADAVPLCADMLLACKRAGVPVIRLGLQPTDILERSVLAGPWHPALRQLVEGELWYRLLERLTTGLAAGTVVSVACAPARISDVVGQRRVNLSRLLERRGIVVTGVAGCPTAAPDTLTLTHAGGTVAGSLTD”, for which the “soluble on expression in E. coli” value was “not soluble”.

Take “MSEMGKYKPPAERKYGKGVQSCQRCGSKDSVIQKYGIYLCRQCFREVAYELGFRKYW”: the “soluble on expression in E. coli” value is recorded as “soluble”.

As to “MAAERVFISPAKYVQGKNVITKIANYLEGIGNKTVVIADEIVWKIAGHTIVNELKKGNIAAEEVVFSGEASRNEVERIANIARKAEAAIVIGVGGGKTLDTAKAVADELDAYIVIVPTAASTDAPTSALSVIYSDDGVFESYRFYKKNPDLVLVDTKIIANAPPRLLASGIADALATWVEARSVIKSGGKTMAGGIPTIAAEAIAEKCEQTLFKYGKLAYESVKAKVVTPALEAVVEANTLLSGLGFESGGLAAAHAIHNGFTALEGEIHHLTHGEKVAFGTLVQLALEEHSQQEIERYIELYLCLDLPVTLEDIKLKDASREDILKVAKAATAEGETIHNAFNVTADDVADAIFAADQYAKAYKEKHRK”, the “soluble on expression in E. coli” value was “soluble”.

As to “MTENAPKFKQISAEIEKKIRDGLYVSAQKLPSEYDLAKEYNCSRLTIRKAIDDLIRKNILVKRHGKGSYVMSQAKIQSGRAGLQGFTEAAKAYGKKSQTEVISFEEVVHPAEKIREALQVGKNEAIYELIRRRMLDGEPMTVEKIYLPQAYVQGHTKQDFEGSLFCLIEKNVEIAYSHQEIEAILVEAEISELLNVPVGQPLLQVHSITYALDATPILYDVSLYRADRYTFKNTLTRYSPSENNQVELGGSWNE”, the “soluble on expression in E. coli” value is listed as “not soluble”.
